From publication PMC4465971, “MIST, a Novel Approach to Reveal Hidden Substrate Specificity in Aminoacyl-tRNA Synthetases”

Key:
[1] = target: T1, yArgRS (yeast cytoplasmic arginyl-tRNA synthetase) (Saccharomyces cerevisiae, UniProt Q05506 1-607); assay: EMSA + tRNA microarray (MIST); 0.8 uM yArgRS, total tRNA competition, 10 mM Mg2+; 25 mM Tris-HCl pH 7.5, 75 mM KCl, 10 mM MgCl2, 25% glycerol; 15 min at room temperature (Fig 1 legend: on ice); native 6% PAGE at room temperature; details: protein: recombinant, tags: none (tag-free native recombinant, E. coli TB1, pTrc99B), label: 5'-32P, tRNA cloverleaf
T1 sequence: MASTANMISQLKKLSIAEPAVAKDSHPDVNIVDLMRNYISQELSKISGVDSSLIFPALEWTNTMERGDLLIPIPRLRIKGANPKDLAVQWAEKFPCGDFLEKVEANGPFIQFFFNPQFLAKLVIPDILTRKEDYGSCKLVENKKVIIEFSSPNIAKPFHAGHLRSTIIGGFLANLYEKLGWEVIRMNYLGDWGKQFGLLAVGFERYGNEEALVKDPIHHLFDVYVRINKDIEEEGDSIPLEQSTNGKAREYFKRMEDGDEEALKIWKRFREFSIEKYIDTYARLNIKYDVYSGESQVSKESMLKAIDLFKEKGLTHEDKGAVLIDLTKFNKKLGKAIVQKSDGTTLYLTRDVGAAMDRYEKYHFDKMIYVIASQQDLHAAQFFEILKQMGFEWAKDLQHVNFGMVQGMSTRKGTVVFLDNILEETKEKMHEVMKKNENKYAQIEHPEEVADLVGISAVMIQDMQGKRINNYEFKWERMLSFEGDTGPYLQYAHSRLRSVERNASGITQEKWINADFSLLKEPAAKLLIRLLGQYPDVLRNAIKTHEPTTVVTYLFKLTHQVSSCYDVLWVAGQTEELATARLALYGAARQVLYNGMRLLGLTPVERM

[2] = target: T1, yArgRS (yeast cytoplasmic arginyl-tRNA …); assay: EMSA + tRNA microarray (MIST); total tRNA competition, 10 mM Mg2+; highest among tRNA Arg; 25 mM Tris-HCl pH 7.5, 75 mM KCl, 10 mM MgCl2, 25% glycerol; 15 min at room temperature (Fig 1 legend: on ice); native 6% PAGE at room temperature; details: protein: recombinant; tags: none (tag-free native recombinant, E. coli TB1, pTrc99B); label: 5'-32P; tRNA cloverleaf
[3] = target: T1, yArgRS (yeast cytoplasmic arginyl-tRNA …); assay: EMSA; 0.5 uM yArgRS, single tRNA, 10 mM Mg2+; 25 mM Tris-HCl pH 7.5, 75 mM KCl, 10 mM MgCl2, 25% glycerol; 15 min at room temperature (Fig 1 legend: on ice); native 6% PAGE at room temperature; details: protein: recombinant, tags: none (tag-free native recombinant, E. coli TB1, pTrc99B), label: 32P, tRNA cloverleaf
[4] = target: T1, yArgRS (yeast cytoplasmic arginyl-tRNA …); assay: EMSA + tRNA microarray (MIST); total tRNA competition, 10 mM Mg2+; 25 mM Tris-HCl pH 7.5, 75 mM KCl, 10 mM MgCl2, 25% glycerol; 15 min at room temperature (Fig 1 legend: on ice); native 6% PAGE at room temperature; details: protein: recombinant; tags: none (tag-free native recombinant, E. coli TB1, pTrc99B); label: 5'-32P; tRNA cloverleaf
[5] = target: T1, yArgRS (yeast cytoplasmic arginyl-tRNA …); assay: EMSA + tRNA microarray (MIST); total tRNA competition, 10 mM Mg2+; strong affinity; 25 mM Tris-HCl pH 7.5, 75 mM KCl, 10 mM MgCl2, 25% glycerol; 15 min at room temperature (Fig 1 legend: on ice); native 6% PAGE at room temperature; details: protein: recombinant; tags: none (tag-free native recombinant, E. coli TB1, pTrc99B); label: 5'-32P; tRNA cloverleaf, long variable loop (class 2)

B1: native tRNA Arg (CCU) (structured_RNA)
RNA: GUUCCGUUGGCGUAAUGGUAACGCGUCUCCCUCCUAAGGAGAAGACUGCGGGUUCGAGUCCCGUACGGAACG
modifications: native post-transcriptional modifications (not specified)
- binding signal [1]: < 0.3 fold enrichment vs input

B2: native tRNA Arg (UCU) (structured_RNA)
RNA: GCUCGCGUGGCGUAAUGGCAACGCGUCUGACUUCUAAUCAGAAGAUUAUGGGUUCGACCCCCAUCGUGAGUG
modifications: native post-transcriptional modifications (not specified)
- binding result [2]: binds

B3: tRNA Pro (AGG) transcript (structured_RNA)
RNA: GGGCGUGUGGUCUAGAGGUAUGAUUCUCGCUUAGGGUGCGGGAGGUCCCGGGUUCGAGUCCCGGCUCGCCCC
modifications: none (unmodified transcript)
- binding signal [3]: 19 % complexed

B4: native tRNA Pro (AGG) (structured_RNA)
RNA: B3 RNA
modifications: native post-transcriptional modifications (not specified)
- binding signal [1]: < 0.3 fold enrichment vs input

B5: native tRNA Ser (AGA) (structured_RNA)
RNA: GGCAACUUGGCCGAGUGGUUAAGGCGAAAGAUUAGAAAUCUUUUGGGCUUUGCCCGCGCAGGUUCGAGUCCUGCAGUUGUCG
modifications: native post-transcriptional modifications (not specified)
- binding signal ([1]; long variable loop (class 2)): > 3 fold enrichment vs input

B6: native tRNA Gly (GCC) (structured_RNA)
RNA: GCGCAAGUGGUUUAGUGGUAAAAUCCAACGUUGCCAUCGUUGGGCCCCCGGUUCGAUUCCGGGCUUGCGCA
modifications: native post-transcriptional modifications (not specified)
- binding signal [4]: 4.5 fold lower apparent affinity than tRNA Leu (GAG)

B7: tRNA Leu (GAG) transcript (structured_RNA)
RNA: GGUACUCUGGCCGAGUGGUCUAAGGCGUCAGGUCGAGGUCCUGAUCUCUUCGGAGGCGCGGGUUCAAACCCCGCGGGUAUCA
modifications: none (unmodified transcript)
- binding signal ([3]; long variable loop (class 2)): > 60 % complexed

B8: native tRNA Leu (GAG) (structured_RNA)
RNA: B7 RNA
modifications: native post-transcriptional modifications (not specified)
- binding signal ([1]; long variable loop (class 2)): > 3 fold enrichment vs input

B9: native tRNA Leu (UAA) (structured_RNA)
RNA: GGAGGGUUGGCCGAGUGGUCUAAGGCGGCAGACUUAAGAUCUGUUGGACGGUUGUCCGCGCGAGUUCGAACCUCGCAUCCUUCA
modifications: native post-transcriptional modifications (not specified)
- binding result [5]: binds

B10: tRNA Asp (GUC) transcript (structured_RNA)
RNA: UCCGUGAUAGUUUAAUGGUCAGAAUGGGCGCUUGUCGCGUGCCAGAUCGGGGUUCAAUUCCCCGUCGCGGAG
modifications: none (unmodified transcript)
- binding signal [3]: 35 % complexed

B11: native tRNA Ile (GAT) (structured_RNA)
RNA: GAAACUAUAAUUCAAUUGGUUAGAAUAGUAUUUUGAUAAGGUACAAAUAUAGGUUCAAUCCCUGUUAGUUUCA
modifications: native post-transcriptional modifications (not specified)
- binding signal [1]: < 0.3 fold enrichment vs input

B12: native tRNA Gly (TCC) (structured_RNA)
RNA: GGGCGGUUAGUGUAGUGGUUAUCAUCCCACCCUUCCAAGGUGGGGACACGGGUUCGAUUCUCGUACCGCUCA
modifications: native post-transcriptional modifications (not specified)
- binding signal [1]: < 0.3 fold enrichment vs input
